Reference: publication PMC6472409, “Dishevelled-3 conformation dynamics analyzed by FRET-based biosensors reveals a key role of casein kinase 1” (Nature Communications, 2019)

Experiments:
[1] = system: Wnt/β-catenin pathway; test: Dual Luciferase TopFlash/Renilla Reporter Assay; assay type: cell-based, human; details: for TopFlash relative to ctrl (= 1): Suppl. Fig. 2a; for TopFlash FlAsH III (CK1e-/-), relative to ctrl (= 1): Suppl. Fig. 4f; for TopFlash FlAsH III (CK1e-/-), relative to ctrl (= 1) / TopFlash in CK1e-/- relative to CK1e wt (= 1): CK1e-/- cells; for TopFlash relative to DVL3 wt (= 1) / TopFlash in CK1e-/- relative to CK1e wt (= 1): Fig 8d
Description: Cells were transfected 24 h after seeding with 0.1 μg of Super8X TopFlash construct, 0.1 μg of Renilla luciferase construct, and 0.1 μg of corresponding plasmids per well for 6 h in a 24-well plate. As for the ECFP-DVL3 FIII wt stable cell lines, transfection was followed by 4 h induction of tetracycline (1 µg/ml) and 8 h treatment of CM:DMEM (1:1 ratio). For performing this assay, Promega Dual Luciferase assay kit (Promega, #E1910) was used according to the manufacturer’s instructions. Luminescence was measured by a Hidex Bioscan Plate Chameleon Luminometer. Results are depicted as the ratio of TopFlash and Renilla signal (TopFlash fold induction), which was normalized for each experiment to certain control column (normalized TopFlash fold induction). Data were analyzed by MS Excel 2007 and GraphPad Prism 6 and results were shown as the means ± S.D. (number of experiments indicated ad hoc).

[2] = system: DVL3 membrane recruitment by FZD6 in HEK293 cells; test: FZD6-dependent membrane recruitment of DVL3, immunofluorescence; assay type: cell-based, human; design: key to Non-recruited (DVL3 membrane recruitment): number of cells out of 100 positive cells scored; details: Fig 8c
Text: First, we analyzed the preferred subcellular localization of DVL3 (as introduced in Fig. 2c)[10],[14]. […] Next, we investigated if DVL3 conformation correlates with the capacity of DVL3 to be recruited by FZD6, a key Wnt receptor, to the plasma membrane. For this purpose, we co-expressed FZD6 and analyzed membrane recruitment of DVL3 in FZD6-positive cells by immunofluorescence. Individual cells were categorized as: not recruited (Fig. 8b, no DVL3 in the membrane), partially recruited (clear membrane as well as cytoplasmic localization), and fully recruited (predominantly plasma membrane localization, Fig. 8c, left). […] In the last readout we analyzed the capacity of DVL3 to activate downstream Wnt/β-catenin pathway monitored by TopFlash reporter assay (Fig. 8d). […] On the other hand, under conditions that favor the open conformation both activation as well as inhibition of the Wnt/β-catenin pathway was evident.
For immunofluorescence, cells were seeded (40,000 per well) on 24-well plates with gelatin-coated coverslips and transfected, as indicated, with 0.1 μg of each corresponding plasmid (0.3 μg of mCherry-FZD6) for 6 h. For western blotting and Dual Luciferase TopFlash/Renilla Reporter Assay, cells were seeded (60,000 per well) directly on 24-well plates with 0.1 μg of each corresponding plasmid (if not indicated otherwise) for 6 h. For coimmunoprecipitation, cells were seeded (4.4 × 10^6) on 10-cm dishes and transfected with 1 μg of each corresponding plasmid. The next day after seeding, cells were transfected using polyethyleneimine (PEI) in a stoichiometry of 6 μl of PEI per 1 μg of DNA for 6 h and were harvested 24 h after transfection. The following plasmids used in HEK293 cells have been described previously: FLAG-DVL3 wt[47], CK1ϵ wt[48], mCherry-FZD6 (ref. [37]), and dominant-negative CK1ϵ P3 (ref. [33]). The ECFP-DVL3 wt plasmid was made by Gateway Technology (via LR recombination according to the manufacturer’s instructions; Thermo Fisher Scientific, #11791020) from the donor plasmid pDONR221 DVL3 (DNASU, #FLH178665.01x) and the destination plasmid pdECFP (LMBP, #4548). The HA-DVL3 wt plasmid was made by Gateway Technology from the donor plasmid pDONR221 DVL3 (DNASU, #FLH178665.01x) and the destination plasmid pcDNA3.1 N-term HA (gift from Erich Nigg).
Cells were seeded on gelatin-coated coverslips in 24-well plates and were transfected the next day. Cells were fixed 24 h later in fresh 4% paraformaldehyde, permeabilized with 0.5% Triton X-100, blocked with PBS/BSA/Triton/Azide buffer (PBTA) [3% (wt/vol) BSA, 0.25% Triton, 0.01% NaN3] for 1 h, and incubated overnight with primary antibodies (in dilution 1:500) in PBTA at 4 °C. The next day, the coverslips were washed in PBS and incubated with secondary antibodies conjugated to Alexa Fluor 488 (Invitrogen A11001) or/and Alexa Fluor 594 (Invitrogen A11058) (all in dilution 1:1000), washed with PBS [in case of samples containing FLAG-DVL3 WT and derived variants stained with DAPI (1:5000)], and all coverslips were mounted on microscopic slides. Cells were then visualized on an Olympus IX51 fluorescent microscope using ×40 air or ×100 oil objectives and/or an Olympus Fluoview 500 confocal laser scanning microscope IX71 using ×100 oil objective. One hundred positive cells per experiment (n = 3) were analyzed and scored according to their phenotype into two/three categories (punctae/even); or non-recruited/partially/fully recruited for FZD6-dependent recruitment of DVL3. The antibodies used were as follows: anti-FLAG M2 (Sigma-Aldrich, #F1804), anti-DVL3 (Santa Cruz, #sc-8027), anti-CK1ɛ (Santa Cruz, #sc-6471), anti-RFP (Chromotek, #5h9) and anti-GFP (Fitzgerald, #20R-GR-011).

[3] = sensor FlAsH III, replicate of grid row r5
[4] = sensor FlAsH III, replicate of grid row r6
[5] = sensor FlAsH III, replicate of grid row r7
[6] = panel of CK1e-/- comparison, wt cells, exp1
[7] = panel of CK1e-/- comparison, wt cells, exp3

Molecule: CK1e
- TopFlash relative to ctrl (= 1) ([1]; sensor FlAsH I, replicate of grid row r5): 1.477
- TopFlash relative to ctrl (= 1) ([1]; sensor FlAsH I, replicate of grid row r6): 1.51
- TopFlash relative to ctrl (= 1) ([1]; sensor FlAsH I, replicate of grid row r7): 1.233
- TopFlash relative to ctrl (= 1) ([1]; sensor FlAsH II, replicate of grid row r5): 1.907
- TopFlash relative to ctrl (= 1) ([1]; sensor FlAsH II, replicate of grid row r6): 2.332
- TopFlash relative to ctrl (= 1) ([1]; sensor FlAsH II, replicate of grid row r7): 1.874
- TopFlash relative to ctrl (= 1) [1, 3]: 2.614
- TopFlash relative to ctrl (= 1) [1, 4]: 1.858
- TopFlash relative to ctrl (= 1) [1, 5]: 2.849
- TopFlash relative to ctrl (= 1) ([1]; sensor FlAsH IV, replicate of grid row r5): 3.481
- TopFlash relative to ctrl (= 1) ([1]; sensor FlAsH IV, replicate of grid row r6): 2.7
- TopFlash relative to ctrl (= 1) ([1]; sensor FlAsH IV, replicate of grid row r7): 1.4298
- TopFlash FlAsH III (CK1e-/-), relative to ctrl (= 1) [1, 3]: 2.409
- TopFlash FlAsH III (CK1e-/-), relative to ctrl (= 1) [1, 4]: 2.306
- TopFlash FlAsH III (CK1e-/-), relative to ctrl (= 1) [1, 5]: 3.0297

Molecule: Ck1e
- TopFlash relative to DVL3 wt (= 1) ([1]; replicate of grid row r4): 2.8
- TopFlash relative to DVL3 wt (= 1) ([1]; replicate of grid row r5): 2.5
- TopFlash relative to DVL3 wt (= 1) ([1]; replicate of grid row r6): 1.85
- Fully recruited (DVL3 membrane recruitment) ([2]; exp1): 8
- Non-recruited (DVL3 membrane recruitment) ([2]; exp1): 58
- Partially recruited (DVL3 membrane recruitment) ([2]; exp1): 34
- Fully recruited (DVL3 membrane recruitment) ([2]; exp2): 43
- Non-recruited (DVL3 membrane recruitment) ([2]; exp2): 27
- Partially recruited (DVL3 membrane recruitment) ([2]; exp2): 30
- Fully recruited (DVL3 membrane recruitment) ([2]; exp3): 15
- Non-recruited (DVL3 membrane recruitment) ([2]; exp3): 63
- Partially recruited (DVL3 membrane recruitment) ([2]; exp3): 22

B1: DVL3 wt (protein, UniProt Q92997 1-716, looked up)
Segment polarity protein …: MGETKIIYHLDGQETPYLVKLPLPAERVTLADFKGVLQRPSYKFFFKSMDDDFGVVKEEISDDNAKLPCFNGRVVSWLVSAEGSHPDPAPFCADNPSELPPPMERTGGIGDSRPPSFHPHAGGGSQENLDNDTETDSLVSAQRERPRRRDGPEHATRLNGTAKGERRREPGGYDSSSTLMSSELETTSFFDSDEDDSTSRFSSSTEQSSASRLMRRHKRRRRKQKVSRIERSSSFSSITDSTMSLNIITVTLNMEKYNFLGISIVGQSNERGDGGIYIGSIMKGGAVAADGRIEPGDMLLQVNEINFENMSNDDAVRVLREIVHKPGPITLTVAKCWDPSPRGCFTLPRSEPIRPIDPAAWVSHTAAMTGTFPAYGMSPSLSTITSTSSSITSSIPDTERLDDFHLSIHSDMAAIVKAMASPESGLEVRDRMWLKITIPNAFIGSDVVDWLYHNVEGFTDRREARKYASNLLKAGFIRHTVNKITFSEQCYYIFGDLCGNMANLSLHDHDGSSGASDQDTLAPLPHPGAAPWPMAFPYQYPPPPHPYNPHPGFPELGYSYGGGSASSQHSEGSRSSGSNRSGSDRRKEKDPKAGDSKSGGSGSESDHTTRSSLRGPRERAPSERSGPAASEHSHRSHHSLASSLRSHHTHPSYGPPGVPPLYGPPMLMMPPPPAAMGPPGAPPGRDLASVPPELTASRQSFRMAMGNPSEFFVDVM
- TopFlash in CK1e-/- relative to CK1e wt (= 1) ([1]; replicate of grid row r4): 0.2303
- TopFlash in CK1e-/- relative to CK1e wt (= 1) ([1]; replicate of grid row r5): 0.1152
- TopFlash in CK1e-/- relative to CK1e wt (= 1) ([1]; replicate of grid row r6): 0.24
- TopFlash in CK1e-/- relative to CK1e wt (= 1) ([1]; replicate of grid row r7): 0.2094
- Fully recruited (DVL3 membrane recruitment) ([2]; CK1e-/- cells, exp1): 31
- Non-recruited (DVL3 membrane recruitment) ([2]; CK1e-/- cells, exp1): 33
- Partially recruited (DVL3 membrane recruitment) ([2]; CK1e-/- cells, exp1): 36
- Fully recruited (DVL3 membrane recruitment) ([2]; CK1e-/- cells, exp2): 16
- Non-recruited (DVL3 membrane recruitment) ([2]; CK1e-/- cells, exp2): 44
- Partially recruited (DVL3 membrane recruitment) ([2]; CK1e-/- cells, exp2): 40
- Fully recruited (DVL3 membrane recruitment) ([2]; CK1e-/- cells, exp3): 26
- Non-recruited (DVL3 membrane recruitment) ([2]; CK1e-/- cells, exp3): 50
- Partially recruited (DVL3 membrane recruitment) ([2]; CK1e-/- cells, exp3): 24
- Fully recruited (DVL3 membrane recruitment) ([2]; exp1): 11
- Non-recruited (DVL3 membrane recruitment) ([2]; exp1): 58
- Partially recruited (DVL3 membrane recruitment) ([2]; exp1): 31
- Fully recruited (DVL3 membrane recruitment) ([2]; exp2): 20
- Non-recruited (DVL3 membrane recruitment) ([2]; exp2): 34
- Partially recruited (DVL3 membrane recruitment) ([2]; exp2): 46
- Fully recruited (DVL3 membrane recruitment) ([2]; exp3): 22
- Non-recruited (DVL3 membrane recruitment) ([2]; exp3): 48
- Partially recruited (DVL3 membrane recruitment) ([2]; exp3): 30
- Fully recruited (DVL3 membrane recruitment) [2, 6]: 8
- Non-recruited (DVL3 membrane recruitment) [2, 6]: 65
- Partially recruited (DVL3 membrane recruitment) [2, 6]: 27
- Fully recruited (DVL3 membrane recruitment) [2, 7]: 20
- Non-recruited (DVL3 membrane recruitment) [2, 7]: 51
- Partially recruited (DVL3 membrane recruitment) [2, 7]: 29
